We go through 4 molecules from article PMC11237949, “Structure and dynamics of the staphylococcal pyridoxal 5-phosphate synthase complex reveal transient interactions at the enzyme interface” (The Journal of Biological Chemistry, 2024).

B3: Staphylococcus aureus Pdx1 (PLP synthase subunit) (enzyme, S. aureus, UniProt A5IQ72 1-295, looked up)
chain: MSKIIGSDRVKRGMAEMQKGGVIMDVVNAEQARIAEEAGAVAVMALERVPSDIRAAGGVARMANPKIVEEVMNAVSIPVMAKARIGHITEARVLEAMGVDYIDESEVLTPADEEYHLRKDQFTVPFVCGCRNLGEAARRIGEGAAMLRTKGEPGTGNIVEAVRHMRQVNSEVSRLTVMNDDEIMTFAKDIGAPYEILKQIKDNGRLPVVNFAAGGVATPQDAALMMELGADGVFVGSGIFKSEDPEKFAKAIVQATTHYQDYELIGRLASELGTAMKGLDINQLSLEERMQERGW
notes: Pdx1 of S. aureus; Cloned into both pETM11/LIC (6xHis-TEV) and pETTRXA-1a/LIC (6xHis-TRX-TEV); Forms hexamers or dodecamers depending on the buffer; also called SaPdx1; source: E. coli Rosetta (DE3), purified (Ni-NTA, TEV cleavage, second Ni-NTA, SEC on Superdex 200); not shown: His6, N-terminal, cleaved

Data set [1] addresses T1, SaPdx1 (Staphylococcus aureus, UniProt Q2G0Q1).
T1 construct: gene pdxS; synthetic gene, E. coli Rosetta (DE3), N-terminal 6xHis (TRX)-TEV tag cleaved; 297 residues printed; hexamer/dodecamer, dodecamer active; assayed without Pdx2, with ammonium sulfate
T1 sequence (Q2G0Q1 1-295): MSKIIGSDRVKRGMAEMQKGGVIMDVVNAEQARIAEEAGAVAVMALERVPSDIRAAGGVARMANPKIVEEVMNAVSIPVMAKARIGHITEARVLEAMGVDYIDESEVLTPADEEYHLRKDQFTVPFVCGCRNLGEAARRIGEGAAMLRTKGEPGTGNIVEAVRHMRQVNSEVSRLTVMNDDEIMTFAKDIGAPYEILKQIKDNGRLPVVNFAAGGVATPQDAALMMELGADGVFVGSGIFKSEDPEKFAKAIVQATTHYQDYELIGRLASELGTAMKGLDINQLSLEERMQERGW
The experiment in a line: PLP Schiff base with Tris, absorbance […] nm. It counts as biochemical. The following applies: with R5P (1 mM in standard mix) and 20 mM ammonium sulfate, 40 uM enzyme, 50 mM Tris-HCl pH 8, 150 mM NaCl, 37 °C; apparent; substrate inhibition at high G3P.

In data set [2] the target is T2, SaPLP synthase (SaPdx1 + SaPdx2) (Staphylococcus aureus, UniProt Q2G0Q1).
T2 construct: gene pdxS; wild-type complex of separately expressed subunits, E. coli Rosetta (DE3), N-terminal His tags TEV-cleaved; up to 24-mer, substoichiometric in Pdx2 at rest, 12:12 in catalysis; with Pyridoxal 5'-phosphate synthase subunit PdxT
T2 sequence (Q2G0Q1 1-295): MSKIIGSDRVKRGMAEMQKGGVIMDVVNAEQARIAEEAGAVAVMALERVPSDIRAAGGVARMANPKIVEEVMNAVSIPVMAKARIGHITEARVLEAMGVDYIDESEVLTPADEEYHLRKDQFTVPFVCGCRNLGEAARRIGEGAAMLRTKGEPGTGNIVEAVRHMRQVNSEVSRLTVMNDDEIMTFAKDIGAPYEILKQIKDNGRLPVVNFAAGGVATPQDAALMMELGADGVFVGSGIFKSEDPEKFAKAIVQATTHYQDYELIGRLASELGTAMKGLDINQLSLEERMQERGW
T2 sequence (Q2G0Q0 1-186 partner): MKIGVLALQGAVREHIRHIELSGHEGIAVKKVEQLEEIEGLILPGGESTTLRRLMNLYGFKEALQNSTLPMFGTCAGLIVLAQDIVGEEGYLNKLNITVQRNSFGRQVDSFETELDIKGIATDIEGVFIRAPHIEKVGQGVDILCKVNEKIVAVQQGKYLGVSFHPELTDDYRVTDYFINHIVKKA
The data set can be described thus: PLP Schiff base with Tris, absorbance […] nm. The following applies: with R5P (1 mM in standard mix) and 20 mM glutamine, 40 uM Pdx1 and 40 uM Pdx2, 50 mM Tris-HCl pH 8, 150 mM NaCl, 37 °C; apparent; substrate inhibition at high G3P. It counts as biochemical.

Data set [3] has as its target B3. The experiment in a line: cell-based or functional assay.
Data set [4] deals with B3. The experiment in a line: SAXS; SEC-SAXS of the SaPdx1-SaPdx2 complexes (WT and mutant), 7 mg/ml, Superose 6 Increase 10/300; volume fractions of stoichiometries estimated with OLIGOMER from AF2-based models. The following applies: both partners purified.
Data set [5] concerns the molecule itself. The data set can be described thus: SEC + other: dynamic light scattering; SaPdx1 purified in Tris-HCl buffer.

Consider `O=C[C@H](O)COP(=O)(O)O` [glyceraldehyde 3-phosphate], for which the “Glyceraldehyde 3-phosphate / Ki” value worked out at 3300 ± 900 µM in data set [1] and 1900 ± 900 µM in data set [2].

B1: Staphylococcus aureus Pdx2 (glutaminase subunit), wild type (enzyme, S. aureus, UniProt A5IQ73 1-186, looked up)
chain: MKIGVLALQGAVREHIRHIELSGHEGIAVKKVEQLEEIEGLILPGGESTTLRRLMNLYGFKEALQNSTLPMFGTCAGLIVLAQDIVGEEGYLNKLNITVQRNSFGRQVDSFETELDIKGIATDIEGVFIRAPHIEKVGQGVDILCKVNEKIVAVQQGKYLGVSFHPELTDDYRVTDYFINHIVKKA
With B1, in data set [3], the “increase in the apparent kcat/KM ratio of PLP synthesis (G3P varied) for the SaPLP complex compared to SaPdx1 + ammonia” value was found to be 5.7 fold and the “increase in the apparent kcat/KM ratio of PLP synthesis (R5P varied) for the SaPLP complex compared to SaPdx1 + ammonia” value was about 21 fold.

B2: Staphylococcus aureus Pdx2 H165N (enzyme)
chain: MKIGVLALQGAVREHIRHIELSGHEGIAVKKVEQLEEIEGLILPGGESTTLRRLMNLYGFKEALQNSTLPMFGTCAGLIVLAQDIVGEEGYLNKLNITVQRNSFGRQVDSFETELDIKGIATDIEGVFIRAPHIEKVGQGVDILCKVNEKIVAVQQGKYLGVSFNPELTDDYRVTDYFINHIVKKA
notes: also called SaPdx2mut; SaPdx2_(H165N); source: E. coli Rosetta (DE3), purified (Ni-NTA, TEV cleavage, second Ni-NTA, SEC on Superdex 75)
Consider B2, for which the “stoichiometry N” value in data set [4] is 1.

Take B3: the “stoichiometry N” value in data set [5] came to 6.
